Experimental data reported in PMC10954620.

These substances were tested against OmcS nanowires (cytochrome OmcS filaments of Geobacter sulfurreducens) (G. sulfurreducens (endogenous in strain ΔomcZ)) (UniProt Q74A86) (assay: NMR titration; 1D 1H NMR chemical shift perturbation of the heme methyl signals of oxidized PpcA-E with and without OmcS nanowires, single point at 1:4 heme ratio periplasmic cytochrome:OmcS; 50 mM potassium phosphate with KCl (ionic strength 150 mM), pH 7, 2H2O; 298 K, 600 MHz).
Chain of UniProt Q74A86 (Q74A86 26-432, stated change not applied): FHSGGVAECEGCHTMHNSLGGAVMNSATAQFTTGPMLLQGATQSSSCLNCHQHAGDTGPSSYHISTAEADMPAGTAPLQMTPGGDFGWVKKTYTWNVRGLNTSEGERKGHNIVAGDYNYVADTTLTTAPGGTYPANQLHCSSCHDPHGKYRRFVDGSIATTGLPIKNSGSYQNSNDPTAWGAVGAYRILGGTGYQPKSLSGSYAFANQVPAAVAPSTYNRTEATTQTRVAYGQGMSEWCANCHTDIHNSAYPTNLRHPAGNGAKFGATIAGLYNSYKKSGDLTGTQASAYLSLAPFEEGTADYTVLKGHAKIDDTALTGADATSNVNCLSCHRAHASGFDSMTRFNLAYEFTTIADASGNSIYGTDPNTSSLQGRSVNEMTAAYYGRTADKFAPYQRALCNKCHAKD

Substance | chemical shift change of heme methyls (Δδ) [ppm]
Periplasmic triheme cytochrome PpcA (natural protein) | < 0.04
Periplasmic triheme cytochrome PpcB (natural protein) | < 0.04
Periplasmic triheme cytochrome PpcD (natural protein) | < 0.04
Periplasmic triheme cytochrome PpcE (natural protein) | < 0.04
